Consider two substances from publication PMC9995687.

This assay concerns the target Human STIM1, N-terminally ECFP-tagged, Q13586-1. The assay is described as follows: FRET microscopy (Eapp) in cells. To be noted: read off a plot.

As for “Orai1 A137Bpa, C-terminally YFP-labelled (from UniProt Q96D31-1) L273D”, the response reads like this: (+TG (1 μM), +UV, n = 9, parent: est. 0.11) 0.004 Eapp; (+TG (1 μM), -UV, n = 9, parent: est. 0.11) 0.002 Eapp; (-TG, +UV, n = 9, parent: est. 0.010) 0.003 Eapp; (-TG, -UV, n = 9, parent: est. 0.008) 0.006 Eapp.
For the substance “Human Orai1 wild-type, C-terminally YFP-labelled (from UniProt Q96D31-1) A137Bpa”, the response is, setting by setting: (+TG (1 μM), +UV, n = 8) 0.11 Eapp; (+TG (1 μM), -UV, n = 8) 0.11 Eapp; (-TG, +UV, n = 8) 0.01 Eapp; (-TG, -UV, n = 8) 0.008 Eapp.
